Test results as given in the RNAGym collection of RNA variant scans (doi:10.7554/elife.80360).

B1: Twister Ribozyme (parent)
chain: AACACUGCCAAUGCCGGUCCCAAGCCCGGAUAAAAGUGGAGGGGGCGG

Variants of: B1
Experiment: self-cleavage, relative activity (ratio to wild type); higher = more cleavage; co-transcriptional

| Variant | self-cleavage |
| --- | --- |
| AACACUGCCAAUAACGGUCCCAAGCCCGGAUAAAAGUGGAGGGGGCGG | 0.685 |
| AACACUGCCAAUACCGGUCCCAAGCCCGGAUAAAAGUGGAGGGGUCGG | 0.539 |
| AACACUGCCAAUACCGGUCCCAAGCCCGGAUAAAAGUGGAGGGGACGG | 0.724 |
| AACACUGCCAAGGCCGGUCCCAUGCCCGGAUAAAAGUGGAGGGGGCGG | 0.566 |
| AACACUGCCAAGGCCGGUCCCACGCCCGGAUAAAAGUGGAGGGGGCGG | 0.401 |
| AACACUGCCAAGGCCGGUCCCAAGCCCCGAUAAAAGUGGAGGGGGCGG | 0.344 |
| AACACUGCCAAUACCGGUCCCAAGCCCGGAUAAAAGUGGAGGGGGCGC | 0.91 |
| AACACUGCCAAUACCGGUCCCAAGCCCGGAUAAAAGUGGAGGGGGCGU | 0.705 |
| AACACUGCCAAGGCCGGUCCCAAGCCCGGAUACAAGUGGAGGGGGCGG | 0.685 |
| AACACUGCCAAUACCGGACCCAAGCCCGGAUAAAAGUGGAGGGGGCGG | 0.0831 |
| AACACUGCCAAUACCGGUCCCAAGCCCGGAUAAAAGUGGAGGAGGCGG | 0.14 |
| AACACUGCCAAGGCCGGUCCCAAGCCCGGAUAAAAGUGGAGGUGGCGG | 0.454 |
| AACACUGCCAAGGCCGGUCCCAAGCCCGGAUAAAAGUGGAGGCGGCGG | 0.274 |
| AACACUGCCAAGGCCGGUCCCAAGCCCGGAUAAAAGUGGAGGGGGCGU | 0.789 |
| AACACUGCCAAGGCCGGUCCCAAGCCCGGAUAAAAGUGGAGGGGUCGG | 0.419 |
| AACACUGCCAAGGCCGGUCCCAAGCCCGGAUAAAAGUGGAGGGGCCGG | 0.288 |
| AACACUGCCAAGGCCGGUCCCAAGCCCGGAUAAUAGUGGAGGGGGCGG | 0.701 |
| AACACUGCCAAGGCCGGUCCCAAGCCCGGAUAAGAGUGGAGGGGGCGG | 0.608 |
| AACACUGCCAAUACCGGUCCCAAGCCCGGAUAAAAGUGGAGUGGGCGG | 0.191 |
| AACACUGCCAAUACCGGUCCCAAGCCCGGAUAAAAGUGGAGCGGGCGG | 0.34 |
| AACACUGCCAAGGCCGGUCCCAAGCCCGGAUAAAAGUGCAGGGGGCGG | 0.137 |
| AACACUGCCAAGGCCGGUCCCAAGCCCGGAUAAAAGUGUAGGGGGCGG | 0.247 |
| AACACUGCCAAGGCCGGUCCCAAGCCCGGAUAAAAGUGAAGGGGGCGG | 0.477 |
| AACACUGCCAAUACCGGUCCCAAGCCCGGAUAAAAGUGGAGGGUGCGG | 0.845 |
| AACACUGCCAAUACCGGUCCCAAGCCCGGAUAAAAGUGGAGGGCGCGG | 0.746 |
| AACACUGCCAAUACCGGUCCCAAGCCCGGAUAAAAGUGGAGGGAGCGG | 1.04 |
| AACACUGCCAAGGCCGGUCCCAAGCCCGGAUAAAAGUGGAGGGGGUGG | 0.866 |

| Variant | self-cleavage |
| --- | --- |
| AACACUGCCAAGGCCGGUCCCAAGCCCGGAUAAAAGUGGAGGGGGAGG | 0.706 |
| AACACUGCCAAGGCCGGUCCCAAGCCCGGAUUAAAGUGGAGGGGGCGG | 0.958 |
| AACACUGCCAAGGCCGGUCCCAAGCCCGGAUGAAAGUGGAGGGGGCGG | 0.914 |
| AACACUGCCAAGGCCGGUCCCAAGCCCGGAUCAAAGUGGAGGGGGCGG | 0.9 |
| AACACUGCCAAUACCGGUCCCAAGCCCGGAUAAAAGUGGAGGGGGCAG | 0.457 |
| AACACUGCCAAUACCGGUCCCAAGCCCGGAUAAAAGUGGAGGGGGCCG | 0.272 |
| AACACUGCCAAUACCGGUCCCAAGCCCGGAUAAAAGUGGAGGGGGCGG | 1.05 |
| AACACUGCCAAGGCCGGUCCCAAGCCCGGAGAAAAGUGGAGGGGGCGG | 0.834 |
| AACACUGCCAAGGCCGGUCCCAAGCCCGGACAAAAGUGGAGGGGGCGG | 0.907 |
| AACACUGCCAAGGCCGGUCCCAAGCCCGGAAAAAAGUGGAGGGGGCGG | 0.746 |
| AACACUGCCAAGACCGGUCCCAAGCCCGGAUAAAAGUGGAGGGGGCGG | 1.14 |
| AACACUGCCAAGCCCGGUCCCAAGCCCGGAUAAAAGUGGAGGGGGCGG | 1.05 |
| AACACUGCCAAGUCCGGUCCCAAGCCCGGAUAAAAGUGGAGGGGGCGG | 0.836 |
| AACACUGCCAAUACCGGUCCCAAGCCCGGAUAGAAGUGGAGGGGGCGG | 0.943 |
| AACACUGCCAAUACCGGUCCCAAGCCCGGAUACAAGUGGAGGGGGCGG | 0.825 |
| AACACUGCCAAUACCGGUCCCAAGCCCGGAUCAAAGUGGAGGGGGCGG | 0.689 |
| AACACUGCCAAUACUGGUCCCAAGCCCGGAUAAAAGUGGAGGGGGCGG | 0.579 |
| AACACUGCCAAUACGGGUCCCAAGCCCGGAUAAAAGUGGAGGGGGCGG | 0.118 |
| AACACUGCCAAUACCGGUCCCAAGCCCGGAUAAAAGUGGGGGGGGCGG | 0.185 |
| AACACUGCCAAGGCUGGUCCCAAGCCCGGAUAAAAGUGGAGGGGGCGG | 0.649 |
| AACACUGCCAAUACCGGUCCCAAGCCCGAAUAAAAGUGGAGGGGGCGG | 0.653 |
| AACACUGCCAAUACCGGUCCCAAGCCCGUAUAAAAGUGGAGGGGGCGG | 0.598 |
| AACACUGCCAAUACCGGUCCCAAGCCCGCAUAAAAGUGGAGGGGGCGG | 0.692 |
| AACACUGCCAAGGCCGGUCCCAAGCCCGGAUAAAAGCGGAGGGGGCGG | 0.593 |
| AACACUGCCAAGGCCGGUCCCAAGCCCGGAUAAAAGGGGAGGGGGCGG | 0.653 |
| AACACUGCCAAUACCGGUCCCAAGCCCGGAUAAAUGUGGAGGGGGCGG | 0.978 |
| AACACUGCCAAUACCGGUCCCAAGCCCGGAUAAACGUGGAGGGGGCGG | 1.02 |
